The values that follow come from the supplement of paper PMC5998384.

Data set [1] relates to HeLa Kyoto. The experiment in a line: solubility in G1/S (NP-40 vs SDS abundance) (log2 ratio); higher = more soluble. Particulars: cell cycle stage: G1/S.
Data set [2] relates to HeLa Kyoto. As to the kind of experiment: melting temperature (median over replicates), in situ; higher = more thermally stable.
The subject of data set [3] is HeLa Kyoto. The experiment in a line: solubility change mitosis vs G1/S (difference of NP-40 vs SDS log2 ratios) (log2 ratio difference); higher = more soluble in mitosis.
In data set [4] the test system is HeLa Kyoto. As to the kind of experiment: thermal stability score vs G1/S (z-score of summed log2 fold changes over temperatures); higher = more thermally stable than in G1/S.
[5] abbreviates: cell cycle stage: early G1 (4.5 h after nocodazole release).
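Throughout, for melting temperature (median over replicates), in situ: HeLa Kyoto cells synchronized by double thymidine or nocodazole block, proteins quantified by TMT10plex mass spectrometry, three independent biological replicates.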
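Throughout, for solubility change mitosis vs G1/S (difference of NP-40 vs SDS log2 ratios): synchronized HeLa Kyoto cells (double thymidine block for G1/S, nocodazole release for mitosis), protein amounts in NP-40 versus SDS lysates quantified by mass spectrometry, three biological replicates.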
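Throughout, for solubility in G1/S (NP-40 vs SDS abundance): HeLa Kyoto cells arrested at G1/S by double thymidine block, proteins quantified by TMT10plex mass spectrometry in mild NP-40 versus SDS extracts, three biological replicates.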
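Throughout, for thermal stability score vs G1/S (z-score of summed log2 fold changes over temperatures): synchronized HeLa Kyoto cells, proteins quantified by TMT10plex mass spectrometry, three biological replicates, mitosis taken 0.5 h after nocodazole release, G1/S directly after double thymidine block.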

Take “MIPRKRYGSKNTDQGVYLGLSKTQVLSPATAGSSSSDIAPLPPPVTLVPPPPDTMSCRDRTQEFLSACKSLQTRQNGIQTNKPALRAVRQRSEFTLMAKRIGKDLSNTFAKLEKLTILAKRKSLFDDKAVEIEELTYIIKQDINSLNKQIAQLQDFVRAKGSQSGRHLQTHSNTIVVSLQSKLASMSNDFKSVLEVRTENLKQQRSRREQFSRAPVSALPLAPNHLGGGAVVLGAESHASKDVAIDMMDSRTSQQLQLIDEQDSYIQSRADTMQNIESTIVELGSIFQQLAHMVKEQEETIQRIDENVLGAQLDVEAAHSEILKYFQSVTSNRWLMVKIFLILIVFFIIFVVFLA [STX5]”: in data set [1], the “solubility in G1/S (log2)” value is 0.558. For the same sequence, the melting temperature in data set [2] (cell cycle stage: G1/S) worked out at 50 °C; in data set [2] (cell cycle stage: mitosis), 49.9 °C. The “solubility change mitosis (log2)” value in data set [3] was -0.103. Besides, the thermal stability score in data set [4] (setting [5]) worked out at 0.862; in data set [4] (cell cycle stage: mitosis), 1.55.
As for “MIPVAEFKQFTEQQPAFKVLKPWWDVLAEYLTVAMLMIGVFGCTLQVTQDKIICLPNHELQENLSEAPCQQLLPRGIPEQIGALQEVKGLKNNLDLQQYSFINQLCYETALHWYAKYFPYLVVIHTLIFMVCTSFWFKFPGTSSKIEHFISILGKCFDSPWTTRALSEVSGENQKGPAATERAAATIVAMAGTGPGKAGEGEKEKVLAEPEKVVTEPPVVTLLDKKEGEQAKALFEKVKKFRMHVEEGDILYTMYIRQTVLKVCKFLAILVYNLVYVEKISFLVACRVETSEVTGYASFCCNHTKAHLFSKLAFCYISFVCIYGLTCIYTLYWLFHRPLKEYSFRSVREETGMGDIPDVKNDFAFMLHLIDQYDSLYSKRFAVFLSEVSESRLKQLNLNHEWTPEKLRQKLQRNAAGRLELALCMLPGLPDTVFELSEVESLRLEAICDITFPPGLSQLVHLQELSLLHSPARLPFSLQVFLRDHLKVMRVKCEELREVPLWVFGLRGLEELHLEGLFPQELARAATLESLRELKQLKVLSLRSNAGKVPASVTDVAGHLQRLSLHNDGARLVALNSLKKLAALRELELVACGLERIPHAVFSLGALQELDLKDNHLRSIEEILSFQHCRKLVTLRLWHNQIAYVPEHVRKLRSLEQLYLSYNKLETLPSQLGLCSGLRLLDVSHNGLHSLPPEVGLLQNLQHLALSYNALEALPEELFFCRKLRTLLLGDNQLSQLSPHVGALRALSRLELKGNRLEALPEELGNCGGLKKAGLLVEDTLYQGLPAEVRDKMEEE [LRRC8E]”, in data set [1], the “solubility in G1/S (log2)” value was determined as 0.0423. Also, the figures for the melting temperature in data set [2] (cell cycle stage: G1/S) and in data set [2] (cell cycle stage: mitosis) were 53.2 °C and 53.1 °C, respectively. Moreover, the “solubility change mitosis (log2)” value in data set [3] was -0.0391. The results for the thermal stability score in data set [4] (setting [5]) and in data set [4] (cell cycle stage: mitosis) were -1.17 and -1.48, respectively.
As to “MIPVTELRYFADTQPAYRILKPWWDVFTDYISIVMLMIAVFGGTLQVTQDKMICLPCKWVTKDSCNDSFRGWAAPGPEPTYPNSTILPTPDTGPTGIKYDLDRHQYNYVDAVCYENRLHWFAKYFPYLVLLHTLIFLACSNFWFKFPRTSSKLEHFVSILLKCFDSPWTTRALSETVVEESDPKPAFSKMNGSMDKKSSTVSEDVEATVPMLQRTKSRIEQGIVDRSETGVLDKKEGEQAKALFEKVKKFRTHVEEGDIVYRLYMRQTIIKVIKFILIICYTVYYVHNIKFDVDCTVDIESLTGYRTYRCAHPLATLFKILASFYISLVIFYGLICMYTLWWMLRRSLKKYSFESIREESSYSDIPDVKNDFAFMLHLIDQYDPLYSKRFAVFLSEVSENKLRQLNLNNEWTLDKLRQRLTKNAQDKLELHLFMLSGIPDTVFDLVELEVLKLELIPDVTIPPSIAQLTGLKELWLYHTAAKIEAPALAFLRENLRALHIKFTDIKEIPLWIYSLKTLEELHLTGNLSAENNRYIVIDGLRELKRLKVLRLKSNLSKLPQVVTDVGVHLQKLSINNEGTKLIVLNSLKKMANLTELELIRCDLERIPHSIFSLHNLQEIDLKDNNLKTIEEIISFQHLHRLTCLKLWYNHIAYIPIQIGNLTNLERLYLNRNKIEKIPTQLFYCRKLRYLDLSHNNLTFLPADIGLLQNLQNLAITANRIETLPPELFQCRKLRALHLGNNVLQSLPSRVGELTNLTQIELRGNRLECLPVELGECPLLKRSGLVVEEDLFNTLPPEVKERLWRADKEQA [LRRC8A]”, the “solubility in G1/S (log2)” value in data set [1] was -0.294. Also, the melting temperature in data set [2] (cell cycle stage: G1/S) worked out at 54 °C; in data set [2] (cell cycle stage: mitosis) it was 52.9 °C. The “solubility change mitosis (log2)” value in data set [3] was found to be 0.00706. Further, the thermal stability score in data set [4] (setting [5]) is -0.642; in data set [4] (cell cycle stage: mitosis), -0.308.
For “MISAAQLLDELMGRDRNLAPDEKRSNVRWDHESVCKYYLCGFCPAELFTNTRSDLGPCEKIHDENLRKQYEKSSRFMKVGYERDFLRYLQSLLAEVERRIRRGHARLALSQNQQSSGAAGPTGKNEEKIQVLTDKIDVLLQQIEELGSEGKVEEAQGMMKLVEQLKEERELLRSTTSTIESFAAQEKQMEVCEVCGAFLIVGDAQSRVDDHLMGKQHMGYAKIKATVEELKEKLRKRTEEPDRDERLKKEKQEREEREKEREREREERERKRRREEEEREKERARDRERRKRSRSRSRHSSRTSDRRCSRSRDHKRSRSRERRRSRSRDRRRSRSHDRSERKHRSRSRDRRRSKSRDRKSYKHRSKSRDREQDRKSKEKEKRGSDDKKSSVKSGSREKQSEDTNTESKESDTKNEVNGTSEDIKSEGDTQSN [LUC7L3]”, the “solubility in G1/S (log2)” value in data set [1] is -0.95. Also, the melting temperature in data set [2] (cell cycle stage: G1/S) was determined as 50.1 °C; in data set [2] (cell cycle stage: mitosis), 50.8 °C. In addition, the “solubility change mitosis (log2)” value in data set [3] stood at 0.0899. Besides, the thermal stability score in data set [4] (setting [5]) came out at 0.00947; in data set [4] (cell cycle stage: mitosis) it was 2.68.
